Molecular target: CYK-4/MgcRacGAP (UniProt Q9H0H5)
Experiment: myc IP, anti-CYK-4 Western blot
Details: reference: E6 wild type; sites T342

Sequence of UniProt Q9H0H5 (Q9H0H5 whole entry, looked up): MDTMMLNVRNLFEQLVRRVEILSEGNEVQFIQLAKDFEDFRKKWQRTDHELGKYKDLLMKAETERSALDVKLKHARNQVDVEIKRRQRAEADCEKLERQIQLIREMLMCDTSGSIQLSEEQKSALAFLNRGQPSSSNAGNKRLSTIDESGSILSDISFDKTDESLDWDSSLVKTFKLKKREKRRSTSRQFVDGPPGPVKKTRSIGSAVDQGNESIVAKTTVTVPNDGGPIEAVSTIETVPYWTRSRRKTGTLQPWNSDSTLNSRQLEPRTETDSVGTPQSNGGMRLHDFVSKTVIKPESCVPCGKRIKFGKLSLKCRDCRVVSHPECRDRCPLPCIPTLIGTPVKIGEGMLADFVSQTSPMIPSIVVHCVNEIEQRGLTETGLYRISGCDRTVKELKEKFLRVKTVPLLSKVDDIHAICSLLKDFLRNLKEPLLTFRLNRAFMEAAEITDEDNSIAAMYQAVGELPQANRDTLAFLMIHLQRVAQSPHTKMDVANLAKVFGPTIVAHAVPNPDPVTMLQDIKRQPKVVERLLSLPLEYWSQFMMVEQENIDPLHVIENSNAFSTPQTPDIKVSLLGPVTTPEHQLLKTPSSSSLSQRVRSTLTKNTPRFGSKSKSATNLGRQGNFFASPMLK

binding against the reference: stronger
Substance: ECT2 E6, 1-352 (from UniProt Q9H8V3-4) E6* (T342A)
